# Molecular target: T1, SARS-CoV-2 Spike ectodomain (pre-fusion, with proline mutations) (SARS-CoV-2, early reference strain …, residues 986 and 987 mutated to a Pro-Pro sequence)
# T1 construct: also called pre-fusion Spike; trimeric Spike
# Assay: cryo-EM structure
# Settings: both partners purified
binder,measurement,value
"EY6A Fab (digested from IgG with papain) (Fab, V domains shown, also called Fab-EY6A; source: digested from ExpiCHO-made IgG with papain (Pierce Fab Preparation Kit)) VH: EVQLVESGGGVVQPGRSLRLSCAASAFTFSSYDMHWVRQAPGKGLEWVAVISYDGSNKYYADSVKGRFTISRDNSKNTLYLQMNSLRAEDTAVYYCAKDGGKLWVYYFDYWGQGTLVTVSS VL: not shown",stoichiometry N,3 Fabs per Spike trimer
